For the assay, the target named is HIV-1 gp41 (Env of HIV-1 BaL) (HIV-1 BaL). As to the kind of experiment: cell-based or functional assay.

The results in this text go back to patent publication US20110190385A1 (UNIVERSITY OF CENTRAL FLORIDA RESEARCH FOUNDATION, published 2011).

B1: RC-101 (single lysine congener of retrocyclin) (peptide)
peptide: cyclo(RCICGRGICRCICGKGIC)
modifications: disulfide (positions not given here); also: three disulfide bridges, pairing not given here
B1: the “IC50 of inhibition of HIV-1 BaL entry in TZM-bl cells (luciferase)” value amounted to 2 µg/mL.
